FireProtDB (doi:10.1021/bi972395d)

Conditions: Homo sapiens; pH 7.8; Thermal; DSC; potassium phosphate 2 mM; transition: 2; reversible: Yes; whole UniProt chain shown

B1: Superoxide dismutase [Mn], mitochondrial wild type, P04179 (protein)
chain: MLSRAVCGTSRQLAPVLGYLGSRQKHSLPDLPYDYGALEPHINAQIMQLHHSKHHAAYVNNLNVTEEKYQEALAKGDVTAQIALQPALKFNGGGHINHSIFWTNLSPNGGGEPKGELLEAIKRDFGSFDKFKEKLTAASVGVQGSGWGWLGFNKERGHLQIAACPNQDPLQGTTGLIPLLGIDVWEHAYYLQYKNVRPDYLKAIWNVINWENVTERYMACKK
Tm: 88.9 °C
unfolding enthalpy (calorimetric): 90.6 kcal/mol
